Target: recombinant human CA125 (rhCA125) (human) (UniProt Q8WXI7)

- adhesion of GFP-MSLN transfected HEK 293 T cells on an OVCAR-3 (MSLN+, MUC16+) monolayer in the presence of 1 uM Nb A1; percent of adhesion blocked: > 90%
Substance: recombinant human mesothelin Fc fusion (hrMSLN-Fc) (from UniProt Q13421 296-598)
